Test system: GFP-Sp1
Experiment: Deglycosylation of GFP-Sp1 co-expressed with OGA constructs (anti-EPEA enrichment, immunoblot)
Format: cell-based, human
Details: co-expressed in HEK 293T cells
Procedure: HEK 293T cells were cultured in Dulbecco's Modified Eagle Medium (DMEM, Cat #11995073) supplemented with penicillin (50 μg/mL) and streptomycin (50 μg/mL) along with 10% (v/v) FBS. Transfections of all plasmids in this study were performed using TransIT-PRO® (Mirus Bio, Cat #MIR 5740) according to the manufacturer's instructions.
Glycoproteins Nup62, Sp1, JunB, c-Jun were subcloned into pcDNA3.1 vector with a GFP and a Flag-tag or a BC2 tag in the N-terminus and an EPEA tag in the C terminus respectively, unless otherwise noted. For all split OGA constructs with or without the fusion of nanobody GFP, N fragments were tagged with myc tag and C fragments were tagged with HA tag respectively. […]
After 36-48 h of transfection, cells were harvested and washed with PBS once. […] Protein concentrations were determined by the BCA assay kit (G-Biosciences, 786) on a multi-mode microplate reader FilterMax F3 (Molecular Devices LLC, Sunnyvale, CA). […]
For immunoblotting analysis, proteins were transferred to a nitrocellulose membrane using iBlot (Thermo Scientific). […] All IR fluorescence western blot images are converted into grayscale images by Fiji ImageJ. The unsaturated exposure of immunoblot images was used for quantification with the appropriate loading controls as standards. […]

B1: split OGA (N2+C3): split OGA fragments N2 and C3 without nanobody (protein)
chain 1: MEQKLISEEDLAIAMVQKESQATLEERESELSSNPAASAGASLEPPAAPAPGEDNPAGAGGAAVAGAAGGARRFLCGVVEGFYGRPWVMEQRKELFRRLQKWELNTYLYAPKDDYKHRMFWREMYSVEEAEQLMTLISAAREYEIEFIYAISPGLDITFSNPKEVSTLKRKLDQVSQFGCRSFALLFDDIDHNMCAADKEVFSSFAHAQVSITNEIYQYLGEPETFLFCPTEYCGTFCYPNVSQSPYLRTVGEKLLPGIEVLWTGPKVVSKEIPVESIEEVSKIIKRAPVIWDNIHANDYDQKRLFLGPYKGRSTELIPRLKGVLTNPNCEFEANYVAIHTLATWYKSNMNGVRKDVVMTDSEDSTVSIQIKLENEGSDEDIETDVLYSPQMALKLALTEWLQEFGVPHQYSSR
chain 2: MAYPYDVPDYAAIAEKPLYTAEPVTLEDLQLLADLFYLPYEHGPKGAQMLREFQWLRANSSVVSVNCKGKDSEKIEEWRSRAAKFEEMCGLVMGMFTRLSNCANRTILYDMYSYVWDIKSIMSMVKSFVQWLGCRSHSSAQFLIGDQEPWAFRGGLAGEFQRLLPIDGANDLFFQPP
  deglycosidase activity / O-GlcNAc level on GFP-Sp1: weak inherent deglycosidase activity
